B1: DOA4-independent degradation protein 4 (Saccharomyces cerevisiae), P36108 (parent)
chain: MSLFEWVFGKNVTPQERLKKNQRALERTQRELEREKRKLELQDKKLVSEIKKSAKNGQVAAAKVQAKDLVRTRNYIQKFDNMKAQLQAISLRIQAVRSSDQMTRSMSEATGLLAGMNRTMNLPQLQRISMEFEKQSDLMGQRQEFMDEAIDNVMGDEVDEDEEADEIVNKVLDEIGVDLNSQLQSTPQNLVSNAPIAETAMGIPEPIGAGSEFHGNPDDDLQARLNTLKKQT
partner: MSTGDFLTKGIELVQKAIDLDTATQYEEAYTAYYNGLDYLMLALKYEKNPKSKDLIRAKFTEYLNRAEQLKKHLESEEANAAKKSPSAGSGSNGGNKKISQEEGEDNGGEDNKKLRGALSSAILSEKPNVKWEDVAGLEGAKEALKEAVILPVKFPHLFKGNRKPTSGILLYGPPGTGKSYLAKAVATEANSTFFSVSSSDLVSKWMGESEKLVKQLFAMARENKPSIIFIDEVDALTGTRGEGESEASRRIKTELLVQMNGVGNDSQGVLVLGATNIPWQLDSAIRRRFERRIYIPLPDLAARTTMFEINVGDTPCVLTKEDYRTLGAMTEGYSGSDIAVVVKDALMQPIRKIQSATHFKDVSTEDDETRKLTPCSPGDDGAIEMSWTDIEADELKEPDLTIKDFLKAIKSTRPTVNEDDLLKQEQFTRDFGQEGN

Variants of: B1
Conditions: with vps4_yeast VPS4, P52917

Row | Variant | effect of a mutation on the interaction
1 | MSLFEWVFGKNVTPQERLKKNQRALERTQRELEREKRKLELQDKKLVSEIKKSAKNGQVAAAKVQAKDLVRTRNYIQKFDNMKAQLQAISLRIQAVRSSDQMTRSMSEATGLLAGMNRTMNLPQLQRISMEFEKQSDLMGQRQEFMDEAIDNVMGDEVDEDEEADEIVNKVLDEIGVDLNSQLQSTPQNLVSNAPIAETAMGIPEPIGAGSEFHGNPDDDDQARLNTLKKQT [L221D] | disrupting interaction strength
2 | MSLFEWVFGKNVTPQERLKKNQRALERTQRELEREKRKLELQDKKLVSEIKKSAKNGQVAAAKVQAKDLVRTRNYIQKFDNMKAQLQAISLRIQAVRSSDQMTRSMSEATGLLAGMNRTMNLPQLQRISMEFEKQSDLMGQRQEFMDEAIDNVMGDEVDEDEEADEIVNKVLDEIGVDLNSQLQSTPQNLVSNAPIAETAMGIPEPIGAGSEFHGNPDDDLQARDNTLKKQT [L225D] | disrupting interaction strength
3 | MSLFEWVFGKNVTPQERLKKNQRALERTQRELEREKRKLELQDKKLVSEIKKSAKNGQVAAAKVQAKDLVRTRNYIQKFDNMKAQLQAISLRIQAVRSSDQMTRSMSEATGLLAGMNRTMNLPQLQRISMEFEKQSDLMGQRQEFMDEAIDNVMGDEVDEDEEADEIVNKVLDEIGVDLNSQLQSTPQNLVSNAPIAETAMGIPEPIGAGSEFHGNPDDDLQARLNTDKKQT [L228D] | disrupting interaction strength
4 | MSLFEWVFGKNVTPQERLKKNQRALERTQRELEREKRKLELQDKKLVSEIKKSAKNGQVAAAKVQAKDLVRTRNYIQKFDNMKAQLQAISLRIQAVRSSDQMTRSMSEATGLLAGMNRTMNLPQLQRISMEFEKQSDLMGQRQEFMDEAIDNVMGDEVDEDEEADEIVNKVLDEIGVDLNSQLQSTPQNLVSNAPIAETAMGIPEPIGAGSEFHGNPDDDLQADLNTLKKQT [R224D] | disrupting interaction strength
5 | MSLFEWVFGKNVTPQERLKKNQRALERTQRELEREKRKLELQDKKLVSEIKKSAKNGQVAAAKVQAKDLVRTRNYIQKFDNMKAQLQAISLRIQAVRSSDQMTRSMSEATGLLAGMNRTMNLPQLQRISMEFEKQSDLMGQRQEFMDEAIDNVMGDEVDEDEEADEIVNKVLDEIGVDLNSQLQSTPQNLVSNAPIAETAMGIPEPIGAGSEFHGNPDDDLQARLNTLDKQT [K229D] | disrupting interaction strength

Reference: IntAct's records for PubMed 17928861
